Target: T1, recombinant μ4 C-terminal domain (human, residues 160–453) (human, UniProt O00189 160-453)
T1 sequence (looked up): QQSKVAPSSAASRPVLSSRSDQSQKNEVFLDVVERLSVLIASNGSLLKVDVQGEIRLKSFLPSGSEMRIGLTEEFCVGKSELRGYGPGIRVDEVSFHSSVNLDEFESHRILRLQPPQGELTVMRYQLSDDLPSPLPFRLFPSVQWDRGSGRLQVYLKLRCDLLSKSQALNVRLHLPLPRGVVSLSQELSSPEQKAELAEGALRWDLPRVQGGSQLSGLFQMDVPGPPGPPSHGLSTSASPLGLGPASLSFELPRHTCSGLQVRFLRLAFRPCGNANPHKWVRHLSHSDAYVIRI
Experiment: ITC

Kd: 26.2 µM
Binder: YPAAISSFDR [ApoER2 peptide YPAAISSFDR]

From paper PMC10979513 (Progress in neurobiology, 2024)
